We go through 15 substances from publication PMC12431651.

Read-outs that look alike come from different tables or passages of the source.

Assay [1] has as its target His-tagged MED25 ACID (aa 389–543) (human) (UniProt Q71SY5). Kind of assay: BLI; His-MED25 ACID (1 µM) captured on Ni-NTA biosensors, NS1 proteins as analytes in 2-fold dilutions; 20 mM Tris pH 8.0, 200 mM NaCl, 1 mM TCEP, 0.05% Tween, 25°C; global fit, 1:1 model for NS1, 2:1 heterogeneous model for NS1Δα3 and the point mutants.
Assay [2] has as its target MED25 ACID (Homo sapiens) (UniProt Q71SY5). The conditions noted are these: cited from earlier work.
The target is the same in assay [3]. The following applies: cited from earlier work. This is another data set of the same source.
For assay [4] the target is unchanged. The conditions noted are these: cited from earlier work. The source holds these as a separate data set.
For assay [5] the target is unchanged. Kind of assay: ITC. The following applies: cited from earlier work.
For assay [6] the target is unchanged. The conditions noted are these: cited from earlier work. The source holds these as a separate data set.
In assay [7] the target is MED25 ACID (H1 interface) (Homo sapiens) (UniProt Q71SY5). Kind of assay: NMR. The following applies: cited from earlier work.
MED25 ACID (H1 interface) (Homo sapiens), sequence (Q71SY5 389-543): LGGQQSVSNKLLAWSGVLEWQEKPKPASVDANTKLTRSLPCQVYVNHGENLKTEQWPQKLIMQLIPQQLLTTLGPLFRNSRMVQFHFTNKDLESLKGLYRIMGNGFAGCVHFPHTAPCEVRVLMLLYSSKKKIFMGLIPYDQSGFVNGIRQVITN
In assay [8] the target is MED25 ACID (Homo sapiens) (UniProt Q71SY5). In words: NMR. The conditions noted are these: cited from earlier work.
MED25 ACID (Homo sapiens), sequence (Q71SY5 389-543): as above
Assay [9] has the same target. The following applies: cited from earlier work. This is another data set of the same source.
The target is the same in assay [10]. The following applies: cited from earlier work. This is another data set of the same source.
Assay [11] shares this target. The following applies: cited from earlier work. The source holds these as a separate data set.
Assay [12] has the same target. The conditions noted are these: cited from earlier work. This is another data set of the same source.

His-tagged MED25 ACID (aa 389–543) (human), sequence (Q71SY5 389-543): as above
ATF6α TAD, sequence (P18850 40-66): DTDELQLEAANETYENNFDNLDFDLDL
p53 TAD2, sequence (P04637 38-61): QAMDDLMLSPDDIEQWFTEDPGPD
ERM TAD, sequence (P41161 38-68): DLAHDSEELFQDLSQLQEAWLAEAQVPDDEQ
p53 TAD, sequence (P04637 1-61): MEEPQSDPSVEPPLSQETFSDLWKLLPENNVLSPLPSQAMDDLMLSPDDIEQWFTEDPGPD

Consider NS1 E110A (natural protein), for which, in [1], the Kd1 (binding mode 1) came out at 1630 nM, the Kd2 (binding mode 2) worked out at 1320 nM, the ka1 (binding mode 1) is 120000 M⁻¹ s⁻¹ and the ka2 (binding mode 2) stood at 3000 M⁻¹ s⁻¹. Moreover, in assay [1], the kdis1 (binding mode 1) was determined as 0.19 s⁻¹ and the kdis2 (binding mode 2) worked out at 0.0034 s⁻¹.

Regarding VP16 TAD (from UniProt P06492), the Kd in assay [2] was 0.05 µM.

In assay [1], “RSV NS1, full-length wild type (aa 1–139) (natural protein)” had a Kd of 0.0165 µM, a koff of 0.002 s⁻¹ and an on-rate constant (kon) of 120000 M⁻¹ s⁻¹.

For the substance ATF6α TAD (from UniProt P18850), the Kd in assay [3] is 0.5 µM.

NS1 (from UniProt P0DOE8): the Kd was 0.02 µM in [4] and 0.015 µM in assay [5].

As for ERM TAD (from UniProt P41161), the Kd in assay [6] is 0.6 µM.

As to NS1 α3 peptide (from UniProt P0DOE8), the Kd was 500 µM in assay [7] and 10 µM in [8].

As to NS1 M122A (natural protein), in assay [1], the Kd1 (binding mode 1) came out at 42.3 nM, the Kd2 (binding mode 2) worked out at 9.4 nM, the ka1 (binding mode 1) stood at 210000 M⁻¹ s⁻¹ and the ka2 (binding mode 2) came to 120000 M⁻¹ s⁻¹. Further, in assay [1], the kdis1 (binding mode 1) was found to be 0.009 s⁻¹ and the kdis2 (binding mode 2) came out at 0.0011 s⁻¹.

Turning to p53 TAD (from UniProt P04637), the Kd in [9] was 0.8 µM.

As for p53 TAD2 (from UniProt P04637), the Kd in [10] was 8.1 µM.

For VP16 TAD1 (from UniProt P06492), the Kd in assay [11] and in assay [12] was 1.6 µM throughout.

In assay [1], NS1 F56A (natural protein) came in with a Kd1 (binding mode 1) of 333 nM, a Kd2 (binding mode 2) of 72 nM, a ka1 (binding mode 1) of 130000 M⁻¹ s⁻¹ and a ka2 (binding mode 2) of 20000 M⁻¹ s⁻¹. In [1], the kdis1 (binding mode 1) turned out to be 0.043 s⁻¹ and the kdis2 (binding mode 2) came out at 0.0014 s⁻¹.

In assay [1], NS1 I54A (natural protein) gave a Kd1 (binding mode 1) of 71.2 nM, a Kd2 (binding mode 2) of 28.3 nM, a ka1 (binding mode 1) of 200000 M⁻¹ s⁻¹ and a ka2 (binding mode 2) of 80000 M⁻¹ s⁻¹. Moreover, in [1], the kdis1 (binding mode 1) amounted to 0.014 s⁻¹ and the kdis2 (binding mode 2) turned out to be 0.0023 s⁻¹.

In assay [1], NS1 K112A (natural protein) yielded a Kd1 (binding mode 1) of 68.1 nM, a Kd2 (binding mode 2) of 7.5 nM, a ka1 (binding mode 1) of 160000 M⁻¹ s⁻¹ and a ka2 (binding mode 2) of 140000 M⁻¹ s⁻¹. Also, in assay [1], the kdis1 (binding mode 1) was 0.011 s⁻¹ and the kdis2 (binding mode 2) was 0.0011 s⁻¹.

Take “NS1Δα3 (NS1 aa 1–116) (domain or fragment)”: in [1], the Kd1 (binding mode 1) amounted to 615 nM, the Kd2 (binding mode 2) came to 850 nM, the ka1 (binding mode 1) came to 80000 M⁻¹ s⁻¹ and the ka2 (binding mode 2) amounted to 3000 M⁻¹ s⁻¹. In assay [1], the kdis1 (binding mode 1) stood at 0.05 s⁻¹ and the kdis2 (binding mode 2) was 0.0024 s⁻¹.
